Source: paper PMC9243173

Biological target: 3HA-3FLAG-CIAO3-C190S/C395S (human) (UniProt Q9H6Q4)
Assay: affinity purification with mass spectrometry; anti-HA beads on lysates of Flp-In 293 cells expressing the 3HA-3FLAG-tagged bait (NUBP2, wildtype or mutant CIAO3); targeted proteomics assay (parallel reaction monitoring) of CIA components and substrates; CIAO3 purifications normalised to CIAO3; wildtype CIAO3 cells also treated with FAC or DFO for 8 h

3HA-3FLAG-CIAO3-C190S/C395S (human), sequence (Q9H6Q4 whole entry C190S/C395S): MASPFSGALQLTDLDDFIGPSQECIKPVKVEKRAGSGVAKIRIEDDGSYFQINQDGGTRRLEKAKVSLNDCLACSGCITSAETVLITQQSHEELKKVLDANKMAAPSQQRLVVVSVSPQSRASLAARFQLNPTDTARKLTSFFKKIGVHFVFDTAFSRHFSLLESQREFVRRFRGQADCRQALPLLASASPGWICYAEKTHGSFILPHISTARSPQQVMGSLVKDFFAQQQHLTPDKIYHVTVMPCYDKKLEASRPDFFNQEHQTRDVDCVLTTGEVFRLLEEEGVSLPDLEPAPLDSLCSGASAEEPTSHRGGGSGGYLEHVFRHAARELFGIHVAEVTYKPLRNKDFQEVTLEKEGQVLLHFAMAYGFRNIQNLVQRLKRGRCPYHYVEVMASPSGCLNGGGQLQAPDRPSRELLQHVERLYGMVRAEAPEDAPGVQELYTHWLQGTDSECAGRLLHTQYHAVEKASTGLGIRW

fold decrease against wildtype CIAO3: 3 to 4 fold
Substance: The CIA targeting complex
